The source of these data is doi:10.1101/2022.03.30.486377 (bioRxiv, 2022).

The chains are these.
B1: C13B8 Fab (Fab, V domains shown)
VH: QVQLQESGPGLVQPSQTLTLTCTVSGDSISNEDYHWTWIRQHPGKGLEWMGYLQYSGNTNYNPSLKSRMTISVDTSKNQFSLRLNSVTAADTAVYFCATSIVLTGMSNKIQPFDYWGQGTLVTVSS
VL: SYELTQPPSVSVSPGQMARITCSGEALPKKYAYWYQQKGGQFPVLVIYKDTERPSGIPERFSGSSSGTIVTLTISGVQPEDEADYYCLSADTSGTWVFGGGTKLTVL
B2: VP12E7 Fab (Fab, V domains shown)
VH: QVQLVQSGGGVVQPGESLRLSCSGSGFTFNNYIMHWVRQAPGQGLDYVSGIGSDGRNTNYGDSVKGRFTISRDNSKDTLYLQMTSLRAEDTAFYYCVKGLDVLRFLDLSTPSGERLDAFDIWGQGTMVTVSS
VL: DIVMTQSPSFLSASVGDRVTITCRASQGISNYLAWYQQKPGKAPHLLIYAASTLQSGVPSRFSGSGSGTEFTLTISSLQPEDFATYYCQQLNSYPLFTFGPGTKVDIE
B3: C13C9 Fab (Fab, V domains shown)
VH: EVQLVQSGPEVKKPGTSARVSCKASGFTSKNTALQWVRQARGQPLEWMGWIDISNYITNYAQKFRGRLTITWDLSASMAYMELSSLRSEDTAVYYCAAVGKDDDVLTGGNKYFDHWGQGTLVTVSS
VL: SYELTQPPSVSVSPGQTARITCSGDALPKKYAYWYQQKSGQAPVLVIHEDDKRPSGIPGRFSASSSGTTATLTISGAQVEDEADYYCYSTDTNDNHAFGSGTKLTVL
B4: VN01H1 Fab (Fab, V domains shown)
VH: EVQLVESGGGLVLPGGSLRLSCSASGFTFSDFSMHWVRQSPGKGLEYVSAITSSGSSTYYPDSVKGRFTISRDNSKNTLYLQMGSLRVEDTAVYWCVKNSDVFRFPHLYFDVWGRGTLVTVSS
VL: not shown
B5: C77G12 Fab (Fab, V domains shown)
VH: EVQLVESGGGVVQPGRSLRISCAVSGFTFGSYAMHWVRQAPGKGLEWVGVMSSDGHNEYYADSVKGRFTISRDNSRNKLYLEMNNLRVDDTAVFYCARGSDYVDDSPPLHYWGQGTLVTVSS
VL: DIQLTQSPSSLSASIGDRVTITCRASQDIANKLAWFQQAPGKAPKSLIYAASRLQSGVPSQFSGSGSGTDFTLTIESLQAGDFATYFCQQYDSFPFTFGPGTKVDVK
B6: C13B8 mAb (antibody, V domains shown)
VH: B1 VH
VL: B1 VL
B7: VP12E7 mAb (antibody, V domains shown)
VH: B2 VH
VL: B2 VL
B8: C13C9 mAb (antibody, V domains shown)
VH: B3 VH
VL: B3 VL
B9: VN01H1 mAb (antibody, V domains shown)
VH: B4 VH
VL: not shown
B10: C77G12 mAb (antibody, V domains shown)
VH: B5 VH
VL: B5 VL

The target of the first test is T1, SARS-CoV-2 fusion peptide K811[…]825 (SARS-CoV-2).
T1 chain: KPSKRSFIEDLLFNK
Put plainly: crystal structure.
For B1, the binding result is “binds”.
Still for that read-out and setting: the result for B2 reads “binds”.
Turning to B3, the binding result is given as “binds”.
Regarding B4, the binding result is “binds”.
Still for that read-out and setting: the result for B5 reads “binds”.

The next test addresses MERS-CoV S protein (S1+S2 ECD) (MERS-CoV; strain  in paper, …, UniProt K0BRG7). Put plainly: ELISA. For orientation: ELISA stands for enzyme-linked immunosorbent assay.
Consider B6, for which the binding result is listed as “binds”.
In the case of B7, the binding result is on record as “binds”.
For the molecule B8, the binding result is “binds”.
On the same count and under the same terms, then B9, with “binds”; and B10, with “binds”.

The target of the next test is HCoV-NL63 S protein (S1+S2 ECD) (HCoV-NL63, strain not named (stand-in: …, UniProt Q6Q1S2)). Nature of the test: ELISA.
On to B6, for which the binding result is listed as “binds”.
As to B7, the binding result is “binds”.
Same read-out and setting: the result for B8 reads “binds”; that for B9, “binds”.
Same read-out and setting: then B10, with “binds”.

The target in the next test is T1, SARS-CoV-2 fusion peptide K811[…]825. Put plainly: ELISA.
Consider B6, for which the binding result is “binds”.
As to B7, the binding result was “binds”.
With B8, the binding result is “binds”.
Turning to B9, the binding result is on record as “binds”.
In the case of B10, the binding result is “binds”.

The target in another test is HCoV-229E S protein (S1+S2 ECD) (HCoV-229E, strain not named (stand-in: …, UniProt P15423)). Put plainly: ELISA.
HCoV-229E S protein (S1+S2 ECD) (HCoV-229E, strain not named, sequence (P15423 whole entry, looked up, the tested form may be a part): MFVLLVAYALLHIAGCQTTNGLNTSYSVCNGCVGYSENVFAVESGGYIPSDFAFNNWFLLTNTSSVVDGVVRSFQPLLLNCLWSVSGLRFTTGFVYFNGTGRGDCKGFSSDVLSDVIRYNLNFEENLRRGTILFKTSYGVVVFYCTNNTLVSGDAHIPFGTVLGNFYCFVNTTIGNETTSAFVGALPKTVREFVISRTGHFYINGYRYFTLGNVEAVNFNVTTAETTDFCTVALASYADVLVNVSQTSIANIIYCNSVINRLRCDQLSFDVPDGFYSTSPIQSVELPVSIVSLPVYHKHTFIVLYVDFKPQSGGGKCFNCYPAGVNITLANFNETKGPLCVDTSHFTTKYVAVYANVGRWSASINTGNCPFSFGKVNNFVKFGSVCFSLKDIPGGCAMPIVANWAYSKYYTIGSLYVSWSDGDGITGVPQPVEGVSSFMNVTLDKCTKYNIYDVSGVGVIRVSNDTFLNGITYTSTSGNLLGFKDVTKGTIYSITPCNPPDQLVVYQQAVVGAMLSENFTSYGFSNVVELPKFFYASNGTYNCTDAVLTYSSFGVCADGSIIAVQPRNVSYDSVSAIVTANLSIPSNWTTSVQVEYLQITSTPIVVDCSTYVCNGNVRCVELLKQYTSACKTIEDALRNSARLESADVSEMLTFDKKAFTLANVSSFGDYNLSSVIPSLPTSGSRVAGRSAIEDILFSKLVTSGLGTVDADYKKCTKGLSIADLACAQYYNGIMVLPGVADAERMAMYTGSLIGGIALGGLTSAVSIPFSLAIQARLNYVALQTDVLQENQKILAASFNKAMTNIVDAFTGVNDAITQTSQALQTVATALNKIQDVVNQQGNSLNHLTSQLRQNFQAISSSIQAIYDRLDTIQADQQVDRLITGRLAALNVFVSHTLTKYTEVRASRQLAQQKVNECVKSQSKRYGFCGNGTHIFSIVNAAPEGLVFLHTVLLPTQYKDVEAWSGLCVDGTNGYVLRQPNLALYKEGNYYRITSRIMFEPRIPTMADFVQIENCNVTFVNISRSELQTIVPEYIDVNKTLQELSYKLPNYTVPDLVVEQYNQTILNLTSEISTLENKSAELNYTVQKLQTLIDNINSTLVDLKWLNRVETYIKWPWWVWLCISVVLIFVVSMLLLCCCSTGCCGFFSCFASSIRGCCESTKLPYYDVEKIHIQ
Regarding B6, the binding result is given as “binds”.
The same measure, in the same setting: then B7, with “binds”; and B8, with “binds”.
Turning to B9, the binding result is given as “binds”.
B10: the binding result is recorded as “binds”.

The next test deals with SARS-CoV-2 (2019-nCoV) S protein (S1+S2 ECD) (SARS-CoV-2 (2019-nCoV), UniProt P0DTC2). Nature of the test: ELISA.
As to B6, the binding result is given as “binds”.
Turning to B7, the binding result was “binds”.
B8: the binding result is “binds”.
As for B9, the binding result is recorded as “binds”.
Still for that read-out and setting: the result for B10 reads “binds”.

For a further test, the target named is HCoV-HKU1 (isolate N5) S protein (S1+S2 ECD) (Human coronavirus HKU1 (isolate N5) …, UniProt Q0ZME7). Put plainly: ELISA.
HCoV-HKU1 (isolate N5) S protein (S1+S2 ECD), sequence (Q0ZME7 13-1295): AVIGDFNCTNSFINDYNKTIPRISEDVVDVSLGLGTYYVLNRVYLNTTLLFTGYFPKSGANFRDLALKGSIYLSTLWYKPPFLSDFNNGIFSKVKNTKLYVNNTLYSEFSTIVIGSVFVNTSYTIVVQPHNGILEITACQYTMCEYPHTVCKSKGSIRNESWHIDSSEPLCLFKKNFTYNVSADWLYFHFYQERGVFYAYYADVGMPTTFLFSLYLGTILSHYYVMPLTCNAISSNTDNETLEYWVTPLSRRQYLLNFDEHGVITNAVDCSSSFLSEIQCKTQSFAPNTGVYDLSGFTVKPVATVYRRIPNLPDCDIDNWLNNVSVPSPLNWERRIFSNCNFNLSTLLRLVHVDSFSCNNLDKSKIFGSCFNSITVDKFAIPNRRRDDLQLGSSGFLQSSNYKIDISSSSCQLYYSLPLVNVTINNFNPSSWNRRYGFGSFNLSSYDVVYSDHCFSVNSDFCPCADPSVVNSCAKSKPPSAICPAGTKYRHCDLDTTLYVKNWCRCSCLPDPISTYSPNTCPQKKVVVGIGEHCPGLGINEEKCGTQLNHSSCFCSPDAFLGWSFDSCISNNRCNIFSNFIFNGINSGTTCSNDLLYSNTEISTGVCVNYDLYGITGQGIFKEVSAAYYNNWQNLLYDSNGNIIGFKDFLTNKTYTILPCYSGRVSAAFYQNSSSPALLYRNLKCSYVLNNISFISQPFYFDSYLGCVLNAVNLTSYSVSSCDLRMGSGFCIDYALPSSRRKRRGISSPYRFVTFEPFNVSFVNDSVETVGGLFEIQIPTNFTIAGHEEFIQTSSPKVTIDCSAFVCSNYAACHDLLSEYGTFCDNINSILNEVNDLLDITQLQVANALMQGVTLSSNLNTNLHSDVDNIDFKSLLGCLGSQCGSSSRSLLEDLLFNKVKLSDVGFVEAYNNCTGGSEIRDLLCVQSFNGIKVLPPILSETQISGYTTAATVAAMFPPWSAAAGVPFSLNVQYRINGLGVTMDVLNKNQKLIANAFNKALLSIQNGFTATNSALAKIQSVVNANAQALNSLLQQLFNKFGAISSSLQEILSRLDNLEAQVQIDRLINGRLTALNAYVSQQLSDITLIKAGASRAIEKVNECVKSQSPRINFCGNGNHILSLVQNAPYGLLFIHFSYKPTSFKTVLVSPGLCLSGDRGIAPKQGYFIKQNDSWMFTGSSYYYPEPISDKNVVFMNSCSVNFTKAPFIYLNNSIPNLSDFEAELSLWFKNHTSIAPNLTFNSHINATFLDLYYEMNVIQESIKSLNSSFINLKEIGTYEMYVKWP
Consider B6, for which the binding result is reported as “binds”.
As for B7, the binding result was “binds”.
Regarding B8, the binding result is given as “binds”.
B9: the binding result is listed as “binds”.
For B10, the binding result is “binds”.

The target in another test is HCoV-OC43 S protein (S1+S2 ECD) (Human coronavirus OC43 (HCoV-OC43)., UniProt P36334). Put plainly: ELISA.
HCoV-OC43 S protein (S1+S2 ECD), sequence (P36334 14-1297): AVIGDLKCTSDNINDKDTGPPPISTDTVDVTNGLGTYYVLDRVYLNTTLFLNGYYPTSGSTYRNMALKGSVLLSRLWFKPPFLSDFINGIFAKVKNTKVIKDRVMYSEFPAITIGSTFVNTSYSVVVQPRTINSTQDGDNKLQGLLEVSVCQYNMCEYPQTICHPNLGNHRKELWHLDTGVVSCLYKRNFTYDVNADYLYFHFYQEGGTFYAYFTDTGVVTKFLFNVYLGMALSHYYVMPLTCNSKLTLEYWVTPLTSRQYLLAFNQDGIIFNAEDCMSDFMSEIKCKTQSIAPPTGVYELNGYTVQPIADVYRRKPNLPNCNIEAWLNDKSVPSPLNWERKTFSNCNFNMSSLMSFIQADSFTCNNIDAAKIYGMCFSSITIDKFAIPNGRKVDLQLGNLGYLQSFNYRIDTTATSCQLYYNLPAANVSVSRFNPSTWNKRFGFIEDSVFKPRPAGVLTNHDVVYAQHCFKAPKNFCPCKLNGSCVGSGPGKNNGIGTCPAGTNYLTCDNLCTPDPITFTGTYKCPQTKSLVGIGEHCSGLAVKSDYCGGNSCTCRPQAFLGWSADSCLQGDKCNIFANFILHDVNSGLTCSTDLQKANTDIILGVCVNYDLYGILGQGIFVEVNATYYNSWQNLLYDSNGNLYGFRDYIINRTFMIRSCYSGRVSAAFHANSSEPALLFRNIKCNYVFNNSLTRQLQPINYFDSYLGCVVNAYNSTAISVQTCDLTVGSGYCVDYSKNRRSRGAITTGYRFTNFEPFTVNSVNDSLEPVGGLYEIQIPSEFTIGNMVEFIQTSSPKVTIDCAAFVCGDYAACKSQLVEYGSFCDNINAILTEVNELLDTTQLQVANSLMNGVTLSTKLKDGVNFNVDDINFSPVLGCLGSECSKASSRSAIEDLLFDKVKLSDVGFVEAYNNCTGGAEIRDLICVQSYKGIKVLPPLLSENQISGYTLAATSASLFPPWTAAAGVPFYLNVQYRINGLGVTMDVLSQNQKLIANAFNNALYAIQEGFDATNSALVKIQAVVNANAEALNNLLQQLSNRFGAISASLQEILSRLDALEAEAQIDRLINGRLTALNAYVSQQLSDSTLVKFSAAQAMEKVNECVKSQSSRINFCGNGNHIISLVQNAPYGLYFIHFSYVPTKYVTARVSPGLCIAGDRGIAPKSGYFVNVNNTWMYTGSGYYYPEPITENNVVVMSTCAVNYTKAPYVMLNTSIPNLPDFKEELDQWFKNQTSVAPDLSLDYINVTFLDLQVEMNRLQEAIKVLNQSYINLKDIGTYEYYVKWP
On to B6, for which the binding result is recorded as “binds”.
On to B7, for which the binding result is reported as “binds”.
For the molecule B8, the binding result is listed as “binds”.
Take B9: the binding result is on record as “binds”.
Same read-out and setting: the result for B10 reads “binds”.

Another test deals with 229E S on 293T cells (Human coronavirus 229E (HCoV-229E)., UniProt P15423). Nature of the test: flow cytometry on cells.
229E S on 293T cells, sequence (P15423 16-1173): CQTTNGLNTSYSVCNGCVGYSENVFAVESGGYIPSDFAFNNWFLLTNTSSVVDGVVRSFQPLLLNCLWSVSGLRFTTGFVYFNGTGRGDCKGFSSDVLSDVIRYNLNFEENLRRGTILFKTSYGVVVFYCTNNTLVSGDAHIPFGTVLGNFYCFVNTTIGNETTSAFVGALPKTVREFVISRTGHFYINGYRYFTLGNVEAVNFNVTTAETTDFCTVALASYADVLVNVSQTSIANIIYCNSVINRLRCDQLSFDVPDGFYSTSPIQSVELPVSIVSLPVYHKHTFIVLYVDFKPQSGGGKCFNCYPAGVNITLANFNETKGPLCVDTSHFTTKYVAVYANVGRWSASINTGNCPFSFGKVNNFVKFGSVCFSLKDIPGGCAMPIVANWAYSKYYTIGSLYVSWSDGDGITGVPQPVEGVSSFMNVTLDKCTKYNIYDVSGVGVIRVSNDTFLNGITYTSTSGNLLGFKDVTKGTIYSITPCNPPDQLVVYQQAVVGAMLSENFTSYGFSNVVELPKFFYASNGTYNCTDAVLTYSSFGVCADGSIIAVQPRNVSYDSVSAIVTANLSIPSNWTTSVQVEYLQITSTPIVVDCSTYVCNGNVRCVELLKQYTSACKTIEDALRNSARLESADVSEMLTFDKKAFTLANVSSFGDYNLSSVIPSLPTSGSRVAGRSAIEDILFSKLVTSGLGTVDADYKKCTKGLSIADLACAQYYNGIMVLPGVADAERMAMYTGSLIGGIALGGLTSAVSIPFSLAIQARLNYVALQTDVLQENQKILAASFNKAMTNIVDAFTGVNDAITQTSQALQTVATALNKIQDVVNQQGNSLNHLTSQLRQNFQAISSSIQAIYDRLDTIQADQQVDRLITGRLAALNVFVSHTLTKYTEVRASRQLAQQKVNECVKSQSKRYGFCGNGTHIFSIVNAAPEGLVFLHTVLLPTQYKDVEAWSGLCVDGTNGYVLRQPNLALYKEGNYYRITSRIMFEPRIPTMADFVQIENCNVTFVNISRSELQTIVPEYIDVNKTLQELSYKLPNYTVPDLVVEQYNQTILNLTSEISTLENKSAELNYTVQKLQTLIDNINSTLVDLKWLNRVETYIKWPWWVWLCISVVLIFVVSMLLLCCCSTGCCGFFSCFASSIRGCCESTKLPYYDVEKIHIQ
As to B6, the binding result is listed as “binds”.
With B7, the binding result is reported as “binds”.
Still for that read-out and setting: then B8, with “binds”; and B9, with “binds”; and B10, with “binds”.

In the next test the target is SARS-CoV-2 Wuhan-Hu-1 S on 293T cells (SARS-CoV-2 Wuhan-Hu-1, UniProt P0DTC2). Nature of the test: flow cytometry on cells.
As to B6, the binding result was “binds”.
As for B7, the binding result was “binds”.
With B8, the binding result is “binds”.
Take B9: the binding result was “binds”.
On to B10, for which the binding result is recorded as “binds”.

Another test concerns the target NL63 S on 293T cells (Human coronavirus NL63 (HCoV-NL63)., UniProt Q6Q1S2). Nature of the test: flow cytometry on cells. (In general: Flow cytometry measures light scatter and fluorescence of single cells or particles in a stream.)
As to B6, the binding result is listed as “binds”.
Same read-out and setting: then B7, with “binds”.
Turning to B8, the binding result is “binds”.
As for B9, the binding result is reported as “binds”.
In the case of B10, the binding result is “binds”.
